Article PMC12102759

Target: G3BP1 NTF2-like domain (human) (UniProt Q13283)
Experiment: fluorescence polarisation

G3BP1 NTF2-like domain (human), sequence (Q13283 1-139): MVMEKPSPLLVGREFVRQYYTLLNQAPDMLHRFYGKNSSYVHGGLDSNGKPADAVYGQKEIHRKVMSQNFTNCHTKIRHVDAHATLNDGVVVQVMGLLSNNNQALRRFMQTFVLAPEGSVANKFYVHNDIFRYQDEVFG

Q: With “SARS-CoV-2 N wt peptide 12-26 (peptide; other documents disagree on this pair)” as the substance, how does the IC50 read?
A: 8.7 µM
